This passage reports binding result, EC50 and Max results from patent US20240301086A1 (APTEVO RESEARCH AND DEVELOPMENT, published 2024).

One test deals with human Fcγ receptor I (human, UniProt P12314 16-288). The experiment in a line: SPR (Biacore T200), construct amine-coupled, Fcγ receptor as analyte. As for the experimental part: (§1) The Fc region incorporated into anti-PSMA bispecific constructs contained mutations intended to reduce or abolish binding to common human and cynomolgus Fc gamma receptors. SPR experiments were conducted at 25° C. in HBS-EP+ with 0.2% BSA buffer on a Biacore T200 system to evaluate the impact of these mutations on binding. For these experiments, three flow cells of a CM5 sensor chip were immobilized with anti-PSMA bispecifics by standard amine coupling to a response level of ˜2000 RU. A blank immobilization was performed on flow cell #1 for purposes of background signal subtraction. Both human and cynomolgus monkey Fcγ receptors (purchased from R&D Systems) were diluted in HBS-EP+ with 0.2% BSA to 4-6 μM and then flowed as analytes at 30 μL/min for 120 seconds followed by a 240 second dissociation step. No regeneration step was required. Blank-subtracted sensorgrams were visually inspected for binding to each of the Fcγ receptor proteins. […] Attenuated binding to Fcγ receptors IIA (both polymorphic variants) and IIB/C was observed. PSMA01107 and PSMA01108 share the same Fc amino acid sequence and therefore equivalent Fcγ receptor binding behavior was expected.
On the technique in general: In SPR one partner is held on a chip, and binding of the other changes the refractive index at the surface.

In test [1] the target is human Fcγ receptor IIIA, V176 variant (human, UniProt P08637 17-208). The description is as above. Here is the method:
as §1

Test [2] has as its target human Fcγ receptor IIIA, F176 variant (human, UniProt P08637 17-208). The test is described as above. As for the experimental part: as §1
In the next test the target is human Fcγ receptor IIIB (human, UniProt O75015 17-200). The test is described as above. Here is the method: as §1
The target of test [3] is T1, cynomolgus Fcγ receptor III (cynomolgus monkey, UniProt Q8SPW2 17-208).
T1 construct: Called recombinant, soluble; also called Cyno RIII
The experiment in a line: SPR (Biacore T200), construct amine-coupled, soluble cyno Fcγ receptor as analyte. As for the experimental part:
as §1

The target in test [4] is T2, Full-length Human PSMA (TSC435), on cells (human, UniProt Q04609 1-750).
T2 construct: also called CHOK1SV/huPSMA; PSMA on C4-2B, 22RV1, LNCaP, MDA-PCa-2b cells
Description: flow cytometry on C4-2B cells, PE goat anti-human IgG Fc secondary, MFI (median). As for the experimental part:
(§2) Constructs were initially tested in CD3ε and PSMA binding assays on Jurkat and C4-2B cells. Cells were labelled at approximately 100,000 cells per well, in 96-well plates, with serial dilutions of bispecific constructs ranging in concentration from of 0.1 to 300 nM, for 30 min on ice. Primary label was followed by washes and incubation with PE-labeled minimum cross species reactive secondary antibody, goat anti-human IgG Fcγ, F(ab′)2 (Jackson Laboratory) for 30 minutes on ice. Washes and incubation were done in staining buffer (PBS with 0.2% BSA and 2 mM EDTA). Cells were collected using an BD™ LSRII or a BD FACSymphony™ flow cytometer (BD Biosciences) and analyzed by FlowJo flow cytometry analysis software. Median fluorescence intensity (MFI) of bound molecules on cells was determined after exclusion of doublets. Results were plotted and nonlinear regression analysis to determine EC50 values was performed using GraphPad Prism 7© graphing and statistics software.

The target of test [5] is T2, Full-length Human PSMA (TSC435), on …. The test is described as above. Here is the method:
as §2
The source holds these as a separate data set.

In test [6] the target is T3, human CD3ε in the TCR/CD3 complex on Jurkat cells (human, UniProt P07766 23-207).
T3 construct: whole, on cells; On the cells it stands in the whole TCR/CD3 complex; also called CD3 (+) cells; CD3-expressing Jurkat cells
Description: flow cytometry on Jurkat cells, PE goat anti-human IgG Fc secondary, MFI (median). As for the experimental part: as §2

Test [7] addresses T3, human CD3ε in the TCR/CD3 complex on …. The description is as above. Here is the method:
as §2
This is another data set of the same source.

For test [8] the target is unchanged. Description: flow cytometry, drawn table 'On- Cell Binding Parameters', row 'Human CD3 binding affinity'. Here is the method: as §2
(In flow cytometry, cells or beads pass a laser one at a time.)

Test [9] has as its target T2, Full-length Human PSMA (TSC435), on …. Description: flow cytometry, drawn table 'On- Cell Binding Parameters', row 'Human PSMA binding affinity'.
The target in test [10] is T4, Full-length cynomolgus monkey PSMA (TSC308), on cells (cynomolgus monkey, UniProt Q04609 1-750 (human entry)).
T4 construct: also called cyno PSMA; CHOK1SV/cynoPSMA
T4 chain: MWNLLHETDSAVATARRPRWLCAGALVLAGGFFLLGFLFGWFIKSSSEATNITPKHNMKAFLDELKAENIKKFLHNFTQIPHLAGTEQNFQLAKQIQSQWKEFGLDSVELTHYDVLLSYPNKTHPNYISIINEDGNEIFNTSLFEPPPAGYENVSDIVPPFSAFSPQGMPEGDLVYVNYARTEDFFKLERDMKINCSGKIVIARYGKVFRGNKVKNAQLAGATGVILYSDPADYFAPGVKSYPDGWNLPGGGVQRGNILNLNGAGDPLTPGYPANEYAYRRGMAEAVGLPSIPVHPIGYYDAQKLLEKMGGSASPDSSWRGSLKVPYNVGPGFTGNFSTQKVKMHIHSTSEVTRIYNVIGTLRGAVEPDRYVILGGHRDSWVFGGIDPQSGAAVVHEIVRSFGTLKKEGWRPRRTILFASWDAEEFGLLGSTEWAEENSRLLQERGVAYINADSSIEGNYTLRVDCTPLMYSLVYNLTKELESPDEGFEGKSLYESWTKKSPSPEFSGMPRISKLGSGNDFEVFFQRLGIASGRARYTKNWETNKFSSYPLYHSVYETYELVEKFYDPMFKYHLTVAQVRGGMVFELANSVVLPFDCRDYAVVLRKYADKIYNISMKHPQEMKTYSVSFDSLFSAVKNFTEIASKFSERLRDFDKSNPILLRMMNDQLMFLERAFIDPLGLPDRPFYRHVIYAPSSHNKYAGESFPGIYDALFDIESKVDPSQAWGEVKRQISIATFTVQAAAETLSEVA
The experiment in a line: flow cytometry on CHO-CynoPSMA cells, Median (PE); drawn table row 'Cyno PSMA binding affinity'.

T3 sequence (P07766 23-207, one chain of several): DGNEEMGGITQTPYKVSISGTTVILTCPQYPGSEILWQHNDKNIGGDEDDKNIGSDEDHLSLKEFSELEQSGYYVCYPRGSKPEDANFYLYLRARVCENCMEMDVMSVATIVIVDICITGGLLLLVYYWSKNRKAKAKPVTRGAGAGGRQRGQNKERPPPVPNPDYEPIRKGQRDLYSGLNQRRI
human Fcγ receptor I, sequence (P12314 16-288): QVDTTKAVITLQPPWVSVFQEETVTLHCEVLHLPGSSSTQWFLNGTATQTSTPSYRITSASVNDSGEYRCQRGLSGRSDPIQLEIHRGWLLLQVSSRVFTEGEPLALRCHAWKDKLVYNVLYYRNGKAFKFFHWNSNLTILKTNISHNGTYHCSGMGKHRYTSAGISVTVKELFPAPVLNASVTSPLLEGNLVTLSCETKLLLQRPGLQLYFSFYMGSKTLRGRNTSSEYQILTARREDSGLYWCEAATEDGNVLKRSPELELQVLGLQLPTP
human Fcγ receptor IIIA, V176 variant, sequence (P08637 other isoform, or with tags, fused parts or gaps mutant): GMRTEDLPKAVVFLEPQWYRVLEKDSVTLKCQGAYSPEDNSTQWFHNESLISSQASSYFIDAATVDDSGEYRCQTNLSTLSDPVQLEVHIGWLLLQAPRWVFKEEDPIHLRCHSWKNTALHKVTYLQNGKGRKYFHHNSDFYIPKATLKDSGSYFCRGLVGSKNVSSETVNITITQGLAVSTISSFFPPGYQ
T1 sequence (Q8SPW2 17-208): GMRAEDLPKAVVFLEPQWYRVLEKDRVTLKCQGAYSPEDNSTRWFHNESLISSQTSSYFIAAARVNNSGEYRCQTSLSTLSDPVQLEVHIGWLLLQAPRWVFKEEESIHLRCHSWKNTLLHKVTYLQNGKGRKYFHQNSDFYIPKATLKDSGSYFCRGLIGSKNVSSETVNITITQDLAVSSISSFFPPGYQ
human Fcγ receptor IIIB, sequence (O75015 17-200): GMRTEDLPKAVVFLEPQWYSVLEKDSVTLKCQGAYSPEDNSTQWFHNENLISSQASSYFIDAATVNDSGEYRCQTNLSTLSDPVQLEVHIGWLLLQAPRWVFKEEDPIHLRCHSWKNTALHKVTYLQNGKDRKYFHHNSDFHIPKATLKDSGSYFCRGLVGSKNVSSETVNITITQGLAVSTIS
human Fcγ receptor IIIA, F176 variant, sequence (P08637 17-208, change not shown): as the sequence (P08637 other isoform, or with tags, fused parts or gaps mutant) above, with V160F counted along it

B1: PSMA01107 Anti-PSMA scFv x Fc x linker x Anti CD3 scFv; Anti PSMA scFv x Fc (bispecific antibody)
chain 1: QVQLVQSGAEVKKPGASVKVSCKASGYTFTDYYMHWVRQAPGQGLEWMGYFNPYNDYTRYAQKFQGRVTMTRDTSTSTVYMELSSLRSEDTAVYYCARSDGYYDAMDYWGQGTTVTVSSGGGGSGGGGSGGGGSGGGGSDIQMTQSPSSLSASVGDRVTITCRASKSISKYLAWYQQKPGKAPKLLIHSGSSLESGVPSRFSGSGSGTEFTLTISSLQPDDFATYYCQQHIEYPWTFGQGTKVEIKEPKSSDKTHTCPPCPAPPAAAPSVFLFPPKPKDTLMISRTPEVTCVVVDVSHEDPEVKFNWYVDGVEVHNAKTKPREEQYNSTYRVVSVLTVLHQDWLNGKEYKCAVSNKALPAPIEKTISKAKGQPREPQVYTLPPSRDELTKNQVSLWCLVKGFYPSDIAVEWESNGQPENNYKTTPPVLDSDGSFFLYSKLTVDKSRWQQGNVFSCSVMHEALHNHYTQKSLSLSPGGGGSPSQVQLVQSGAEVKKPGASVKVSCKASGYTFTRSTMHWVRQAPGQGLEWIGYINPSSAYTNYAQKFQGRVTLTADKSTSTAYMELSSLRSEDTAVYYCASPQVHYDYNGFPYWGQGTLVTVSSGGGGSGGGGSGGGGSGGGGSDIQMTQSPSSLSASVGDRVTITCRASSSVSYMNWYQQKPGKAPKRWIYDSSKLASGVPSRFSGSGSGTDFTLTISSLQPEDFATYYCQQWSRNPPTFGQGTKVEIKRS
chain 2: QVQLVQSGAEVKKPGASVKVSCKASGYTFTDYYMHWVRQAPGQGLEWMGYFNPYNDYTRYAQKFQGRVTMTRDTSTSTVYMELSSLRSEDTAVYYCARSDGYYDAMDYWGQGTTVTVSSGGGGSGGGGSGGGGSGGGGSDIQMTQSPSSLSASVGDRVTITCRASKSISKYLAWYQQKPGKAPKLLIHSGSSLESGVPSRFSGSGSGTEFTLTISSLQPDDFATYYCQQHIEYPWTFGQGTKVEIKEPKSSDKTHTCPPCPAPPAAAPSVFLFPPKPKDTLMISRTPEVTCVVVDVSHEDPEVKFNWYVDGVEVHNAKTKPREEQYNSTYRVVSVLTVLHQDWLNGKEYKCAVSNKALPAPIEKTISKAKGQPREPQVYTLPPSRDELTKNQVSLSCAVKGFYPSDIAVEWESNGQPENNYKTTPPVLDSDGSFFLVSKLTVDKSRWQQGNVFSCSVMHEALHNHYTQKSLSLSPG
notes: Heterodimer, bivalent for PSMA and monovalent for CD3 (VH-VL scFv at the C-terminus); also called PSMA1107
As for B1, the binding result (with human Fcγ receptor I; in test [1]; in [2]; with human Fcγ receptor IIIB; in [3]) was “no binding (tested: 4-6 µM)” throughout. Moreover, the EC50 (usually the concentration that produces a half-maximal response) in [4] was 1 nM; in test [5], 1 nM; in test [6] it was above 208 nM; in [7] it was above 200 nM; in [8], above 200 nM; in [9], 1 nM. In addition, the EC50 in test [10] is 5 nM. The Max in test [8] came out at 2000; in test [9], 2400; in test [10], 22000.

B2: PSMA01108 Anti-PSMA scFv x Fc x linker x Anti CD3 scFv; Anti PSMA scFv x Fc (bispecific antibody)
chain 1: QVQLVQSGAEVKKPGASVKVSCKASGYTFTDYYMHWVRQAPGQGLEWMGYFNPYNDYTRYAQKFQGRVTMTRDTSTSTVYMELSSLRSEDTAVYYCARSDGYYDAMDYWGQGTTVTVSSGGGGSGGGGSGGGGSGGGGSDIQMTQSPSSLSASVGDRVTITCRASKSISKYLAWYQQKPGKAPKLLIHSGSSLESGVPSRFSGSGSGTEFTLTISSLQPDDFATYYCQQHIEYPWTFGQGTKVEIKEPKSSDKTHTCPPCPAPPAAAPSVFLFPPKPKDTLMISRTPEVTCVVVDVSHEDPEVKFNWYVDGVEVHNAKTKPREEQYNSTYRVVSVLTVLHQDWLNGKEYKCAVSNKALPAPIEKTISKAKGQPREPQVYTLPPSRDELTKNQVSLWCLVKGFYPSDIAVEWESNGQPENNYKTTPPVLDSDGSFFLYSKLTVDKSRWQQGNVFSCSVMHEALHNHYTQKSLSLSPGGGGSPSDIQMTQSPSSLSASVGDRVTITCRASSSVSYMNWYQQKPGKAPKRWIYDSSKLASGVPSRFSGSGSGTDFTLTISSLQPEDFATYYCQQWSRNPPTFGQGTKVEIKGGGGSGGGGSGGGGSGGGGSQVQLVQSGAEVKKPGASVKVSCKASGYTFTRSTMHWVRQAPGQGLEWIGYINPSSAYTNYAQKFQGRVTLTADKSTSTAYMELSSLRSEDTAVYYCASPQVHYDYNGFPYWGQGTLVTVSS
chain 2: B1 chain 2
notes: also called PSMA1108; PSAM01108
As for B2, the binding result (with human Fcγ receptor I; in test [1]; in test [2]; with human Fcγ receptor IIIB; in test [3]) was “no binding (tested: 4-6 µM)” throughout. Further, the EC50 in test [4] was 1 nM; in test [5], 1 nM; in test [6] it was above 210 nM; in [7], above 200 nM; in test [8], above 200 nM; in test [9] it was 1 nM. This molecule also yielded an EC50 in test [10] of 4 nM. The Max was 409 in test [8], 2500 in test [9] and 19500 in test [10].
